Legend:
HUVECs [1] = test: VEGF secretion by ELISA; format: cell-based, Human; conditions: purified recombinant TARS added to cell media, 24 h
Experimental: ELISA and Lactate Dehydrogenase Assays—Confluent HUVEC cultures (passage 4) were incubated at 37° C. in Clonetics® EGM®-2 modified with 0.2% fetal bovine serum with the addition of 50 ng/ml human VEGF or 50 ng/ml human TNF-α for 6 h as indicated. Culture media supernatants were tested for levels of secreted TARS protein using the Threonyl tRNA Synthetase (TARS) ELISA Kit (USCN Life Science, Wuhan, Hubei, PRC) according to manufacturer's instructions. Cell membrane integrity was confirmed using the lactate dehydrogenase assay CytoTox-ONE™ Homogeneous Membrane Integrity Assay (Promega, Madison, Wis.) according to manufacturer's instructions and reported as percent cytotoxicity relative to a lysis control. Levels of secreted VEGF were measured using the Human VEGF ELISA kit (Thermo Scientific) per manufacturer's instructions.

[2] = test system: Human umbilical vein endothelial cells (HUVECs); test: In vitro endothelial tube formation assay; format: cell-based; conditions: 100 nM purified recombinant protein in low-serum media (0.2% FBS), 6 h
Experimental: In vitro Tube Formation Assay—Tube formation assays were performed as described (Arnaoutova and Kleinman 2010; Cassavaugh, Hale et al., 201). Human Umbilical Vein Endothelial Cells (HUVECs) were seeded in 48-well plates (1.5×10^4 cells/well) coated with 100 μl of Matrigel™ Basement Membrane Matrix Growth Factor Reduced (BD Biosciences, San Jose, Calif.) and incubated in Clonetics® EGM®-2 complete media (Lonza, Annandale, N.J.) or EGM®-2 with reduced serum (0.2% fetal bovine serum). Cells were incubated at 37° C. for 6 h then fixed in 10% formalin. Fixed samples were imaged by phase-contrast microscopy or stained with Oregon Green 488 Phalloidin (Molecular Probes, Eugene, Oreg.) then imaged with fluorescence microscopy (2× objective). Number of tubes and tube lengths (in pixels) were quantified using the Simple Neurite Tracer (Longair, Baker et al. 2011) plug-in on ImageJ software (NIH). Statistical analysis of one-way ANOVA was performed with GraphPad Software. Multiple comparisons were performed using the Tukey Test.

HUVECs [3] = test: Endothelial cell proliferation assay (alamarBlue); format: cell-based, Human; conditions: HUVECs in low serum (0.2% FBS) media
Experimental: Endothelial Cell Proliferation Assay—The […] alamarBlue® (Invitrogen) reagent was used to assess cell proliferation (Ahmed, Gogal et al. 1994). HUVECs were seeded in a 96-well dish (1×10^3 cells/well) and grown for 48 h in EGM®-2 media. Cells were incubated in 0.2% FBS EGM®-2 media or EGM®-2 complete media as indicated; VEGF (50 ng/ml) and media alone served as controls. After 48 h, 72 h, or 96 h in culture, 10 μl/well premixed alamarBlue® (Invitrogen) was added and after 3 h at 37° C. the amount of reduced alamarBlue® was quantified by fluorescence (excitation at 530 nm, emission at 590 nm) on a microplate reader (Synergy™ HT, BioTek, Winooski, Vt.).

[4] = test system: chorioallantoic membrane (CAM); test: Chick chorioallantoic membrane (CAM) assay; format: in vivo, chicken
Experimental: Chick Chorioallantoic Membrane Assay—Fertilized chicken eggs (Sunrise Farms, Catskill, N.Y.) day 1-2 post-laying were incubated in a humidified incubator at 37° C. for 72 h. Cleaned eggs were cracked and plated in a sterile 10 cm^2 tissue culture-treated dish and incubated at 37° C. for another 7 days. On developmental day 10, 1 mm sterile gelatin sponge pieces (Surgifoam®; Johnson & Johnson Wound Management, Somerville, N.J.) were placed within the outer one-third of the membrane between large vessels. 40 μg/ml human bFGF and 2 μg/ml human VEGF were used as pro-angiogenic control compounds; 100 μg/mL retinoic acid (Sigma-Aldrich, St. Louis, Mo.) diluted in phosphate-buffered saline (PBS) was used as an angiostatic control. All compounds were applied in 10 μl to the CAM every 24 h for 72 h. Images were taken using a Leica MZ6 stereomicroscope every 24 h. Compounds were scored according to a modified version of Intensity Scoring as previously described (Ribatti, Nico et al. 2006). Briefly, each experimental condition was given a blinded score from 0-5 based on the change in the extent of vessel convergence and formation in proximity to the sponge from day 0 to day 3. Total score is averaged individual experimental condition scores from at least 15 replicates.
Fertilized chicken embryos were cultured ex-ova and, starting at developmental day 10, agents were applied daily to gelfoam sponges on the CAM. Images were recorded daily over 72 h and scored blindly according to a modified version Intensity Scoring as previously described (Ribatti, Nico, 2006). Additional details regarding methods are provided in the Methods and Materials section of Example 1.

B1: TARS: N-terminal His6-tagged human threonyl-tRNA synthetase expressed and purified from E. coli (protein, UniProt P26639 1-723, looked up)
Threonine--tRNA ligase 1, …: MFEEKASSPSGKMGGEEKPIGAGEEKQKEGGKKKNKEGSGDGGRAELNPWPEYIYTRLEMYNILKAEHDSILAEKAEKDSKPIKVTLPDGKQVDAESWKTTPYQIACGISQGLADNTVIAKVNNVVWDLDRPLEEDCTLELLKFEDEEAQAVYWHSSAHIMGEAMERVYGGCLCYGPPIENGFYYDMYLEEGGVSSNDFSSLEALCKKIIKEKQAFERLEVKKETLLAMFKYNKFKCRILNEKVNTPTTTVYRCGPLIDLCRGPHVRHTGKIKALKIHKNSSTYWEGKADMETLQRIYGISFPDPKMLKEWEKFQEEAKNRDHRKIGRDQELYFFHELSPGSCFFLPKGAYIYNALIEFIRSEYRKRGFQEVVTPNIFNSRLWMTSGHWQHYSENMFSFEVEKELFALKPMNCPGHCLMFDHRPRSWRELPLRLADFGVLHRNELSGALTGLTRVRRFQQDDAHIFCAMEQIEDEIKGCLDFLRTVYSVFGFSFKLNLSTRPEKFLGDIEVWDQAEKQLENSLNEFGEKWELNSGDGAFYGPKIDIQIKDAIGRYHQCATIQLDFQLPIRFNLTYVSHDGDDKKRPVIVHRAILGSVERMIAILTENYGGKWPFWLSPRQVMVVPVGPTCDEYAQKVRQQFHDAKFMADIDLDPGCTLNKKIRNAQLAQYNFILVVGEKEKISGTVNIRTRDNKVHGERTISETIERLQQLKEFRSKQAEEEF
modifications: N-terminal His6 tag
notes: N-terminal His6-tagged human threonyl-tRNA synthetase expressed and purified from E. coli
HUVECs [1]
  secretion of VEGF (ELISA): did not induce secretion of VEGF
[2]
  number of tube branches on addition of protein: significantly increased the number of tube branches
HUVECs [3]
  cell proliferation with protein: did not exert a significant effect
[4]; protein co-applied with BC194
  sensitivity of the protein's CAM angiogenic effect to BC194: sensitive to BC194
[4]; purified protein applied daily to sponge on CAM, 72 h
  CAM vessel formation / vascularization on application of protein: stimulated vessel formation
